Test results taken from publication PMC3741180, “A Novel High Throughput Biochemical Assay to Evaluate the HuR Protein-RNA Complex Formation” (PLoS ONE, 2013).

Experiments:
HuR/ELAVL1 = target: T1, HuR/ELAVL1 (Homo sapiens, UniProt Q15717); experiment: AlphaScreen ([…]) and REMSA ([…]) of rHuR-RNA complex formation; type: biochemical
T1 construct: full-length human HuR with C-terminal Myc-His tag (rHuR), purified from HEK293T cells

rHuR (HuR-Myc-His) [1] = target: T2, rHuR (HuR-Myc-His) (Homo sapiens, UniProt Q15717 1-326); experiment: AlphaScreen saturation binding; AlphaScreen: 25 mM HEPES pH 7.4, 100 mM NaCl, 0.1% BSA, room temperature; REMSA: 20 mM HEPES pH 7.5, 50 mM KCl, 0.5 ug BSA, 0.25% glycerol, room temperature, 6% native gel 0.5X TBE at 4 C; conditions: protein: recombinant; tags: C-terminal c-Myc and His6; label: 5'-biotin; single strand
rHuR (HuR-Myc-His) [2] = target: T2, rHuR (HuR-Myc-His); experiment: AlphaScreen saturation binding; repeat alongside Bi-COX; AlphaScreen: 25 mM HEPES pH 7.4, 100 mM NaCl, 0.1% BSA, room temperature; REMSA: 20 mM HEPES pH 7.5, 50 mM KCl, 0.5 ug BSA, 0.25% glycerol, room temperature, 6% native gel 0.5X TBE at 4 C; conditions: protein: recombinant; tags: C-terminal c-Myc and His6; label: 5'-biotin; single strand
rTTP (His-Strep-TTP) = target: T3, rTTP (His-Strep-TTP) (Mus musculus, UniProt P22893 1-319); experiment: AlphaScreen competition; rTTP displacing 1 nM rHuR from 50 nM Bi-TNF; AlphaScreen: 25 mM HEPES pH 7.4, 100 mM NaCl, 0.1% BSA, room temperature; REMSA: 20 mM HEPES pH 7.5, 50 mM KCl, 0.5 ug BSA, 0.25% glycerol, room temperature, 6% native gel 0.5X TBE at 4 C; conditions: protein: recombinant; tags: His-Strep; label: 5'-biotin; single strand
T3 sequence: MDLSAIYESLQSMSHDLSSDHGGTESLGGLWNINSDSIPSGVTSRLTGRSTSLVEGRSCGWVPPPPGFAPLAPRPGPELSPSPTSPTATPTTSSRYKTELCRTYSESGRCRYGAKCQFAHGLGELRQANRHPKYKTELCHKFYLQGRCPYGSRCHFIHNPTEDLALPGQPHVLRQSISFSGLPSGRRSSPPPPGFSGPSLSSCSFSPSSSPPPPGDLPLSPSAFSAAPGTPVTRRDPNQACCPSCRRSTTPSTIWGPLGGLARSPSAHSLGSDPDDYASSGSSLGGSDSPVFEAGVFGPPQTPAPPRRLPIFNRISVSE

rHuR (HuR-Myc-His) [3] = target: T2, rHuR (HuR-Myc-His); experiment: AlphaScreen saturation binding; signal near background, probe 0-100 nM; AlphaScreen: 25 mM HEPES pH 7.4, 100 mM NaCl, 0.1% BSA, room temperature; REMSA: 20 mM HEPES pH 7.5, 50 mM KCl, 0.5 ug BSA, 0.25% glycerol, room temperature, 6% native gel 0.5X TBE at 4 C; conditions: protein: recombinant; tags: C-terminal c-Myc and His6; label: 5'-biotin; single strand
rHuR (HuR-Myc-His) [4] = target: T2, rHuR (HuR-Myc-His); experiment: AlphaScreen competition; versus 50 nM Bi-TNF, 1 nM rHuR; AlphaScreen: 25 mM HEPES pH 7.4, 100 mM NaCl, 0.1% BSA, room temperature; REMSA: 20 mM HEPES pH 7.5, 50 mM KCl, 0.5 ug BSA, 0.25% glycerol, room temperature, 6% native gel 0.5X TBE at 4 C; conditions: protein: recombinant; tags: C-terminal c-Myc and His6; single strand

T2 sequence (Q15717 whole entry): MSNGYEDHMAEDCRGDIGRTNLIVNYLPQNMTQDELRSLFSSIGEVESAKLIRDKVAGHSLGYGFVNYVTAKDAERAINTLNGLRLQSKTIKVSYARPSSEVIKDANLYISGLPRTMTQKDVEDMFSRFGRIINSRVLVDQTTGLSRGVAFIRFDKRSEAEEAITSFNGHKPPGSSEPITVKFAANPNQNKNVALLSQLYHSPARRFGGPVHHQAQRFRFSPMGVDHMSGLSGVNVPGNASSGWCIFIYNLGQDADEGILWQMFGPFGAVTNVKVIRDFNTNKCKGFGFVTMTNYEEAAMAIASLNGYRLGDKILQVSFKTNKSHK
T1 sequence (Q15717 2-326): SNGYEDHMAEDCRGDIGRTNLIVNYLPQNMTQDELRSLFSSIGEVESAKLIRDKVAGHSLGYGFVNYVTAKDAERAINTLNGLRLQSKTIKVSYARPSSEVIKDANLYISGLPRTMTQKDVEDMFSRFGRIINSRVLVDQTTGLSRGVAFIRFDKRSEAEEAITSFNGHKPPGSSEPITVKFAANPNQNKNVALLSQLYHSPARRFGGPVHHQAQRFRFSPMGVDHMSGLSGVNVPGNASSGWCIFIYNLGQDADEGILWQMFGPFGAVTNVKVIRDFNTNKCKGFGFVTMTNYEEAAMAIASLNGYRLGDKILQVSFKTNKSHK

O=C1c2c(O)ccc(O)c2C(=O)c2c(NCCNCCO)ccc(NCCNCCO)c21 [compound 16, Mitoxantrone]
AlphaScreen (25 nM) and REMSA (0.5 μM) of rHuR-RNA complex formation (HuR/ELAVL1): Mitoxantrone revealed to be a compound interfering with rHuR binding to Bi-TNF in both of our in vitro assays

AUUAUUUAUUAUUUAUUUAUUAUUUA (ssRNA) [Bi-TNF]
Kd (rHuR (HuR-Myc-His) [1]): 2.5 ± 0.6 nM | Kd (rHuR (HuR-Myc-His) [2]): 2.75 nM | Ki (rTTP (His-Strep-TTP)): 0.00176 ± 0.00041 nM

UAUUAAUUUAAUUAUUUAAUAAUAUUU (ssRNA) [Bi-COX]
Kd (rHuR (HuR-Myc-His) [1]): 4.58 ± 1.2 nM

ACCACCCACCACCCACCCACCACCCA (ssRNA) [Bi-TNFneg]
binding result (rHuR (HuR-Myc-His) [3]): no binding

AUUAUUUAUUAUUUAUUUAUUAUUUA (ssRNA) [U-TNF]
Ki (rHuR (HuR-Myc-His) [4]): 4.49 ± 1.1 nM
